Experimental data taken from patent US20220112269A1 (WISCONSIN ALUMNI RESEARCH FOUNDATION, published 2022).
Non-standard residues stand in square brackets, D forms with d. No end group written: not given here. Hyp = O=C(O)[C@@H]1C[C@@H](O)CN1

What was measured:
[1] = biological target: the molecule itself; assay: sedimentation equilibrium AUC, monomer + multimer model, 15000 rpm, 4 C; self-assembly, lower bound
Procedure: Sedimentation equilibrium experiments were performed at the UW BIF with an XL-A analytical ultracentrifuge from Beckman Coulter (Brea, Calif.) equipped with an An-60 Ti rotor. Samples were prepared at 0.6 mg/mL in 10 mM sodium phosphate buffer, pH 7.0, but were diluted to 0.3 mg/mL prior to the experiment. Sample (100 μL) and matching buffer (110 μL) were placed in a cell with an Epon 12-mm double-sector charcoal-filled centerpiece from Beckman Coulter. Experiments were run at 4° C. for more than 7 days at speeds of 8.8, 15, 25, 36, and 60 k rpm, and gradients recorded at 231 nm were monitored until superimposable 4 h apart. A buffer density of 1.0011 g/mL and a partial specific volume of 0.6955 mL/g calculated based on amino-acid content was used for analysis. Equilibrium gradients at 4° C. were modeled as single and multiple non-interacting species through nonlinear least-squares fits to gradient data. Analysis was performed with programs written for IGOR PRO software from WaveMetrics (Lake Oswego, Oreg.) by Dr. D. R. McCaslin (UW BIF). Non-sedimenting baselines between 0.04-0.07 OD were applied for all samples during analysis.

[2] = biological target: the molecule itself; assay: AUC, CD, DLS, self-assembly
AUC, CD, self-assembly = biological target: the molecule itself; assay: AUC, CD, self-assembly
[3] = biological target: the molecule itself; assay: AUC, CD, AFM, TEM, self-assembly
CD, TEM, self-assembly = biological target: the molecule itself; assay: CD, TEM, self-assembly
[4] = biological target: the molecule itself; assay: CD, TEM, DLS, rheology, self-assembly
[5] = biological target: the molecule itself; assay: CD, TEM, DLS, self-assembly of the disulfide-linked dimer
[6] = biological target: the molecule itself; assay: CD, TEM, DLS, self-assembly
[7] = biological target: the molecule itself; assay: CD, DLS, rheology, self-assembly
CD, DLS, self-assembly = biological target: the molecule itself; assay: CD, DLS, self-assembly
[8] = biological target: the molecule itself; assay: CD, TEM, DLS, self-association without fibers

B1: 4sbG-OKD ("OKD") (peptide)
peptide: PXGPXGPXGPXGPKGPKGPKGPKGPXGPXGDXGDXGDXGDXG
modifications: O = 4-hydroxyproline (Hyp)
notes: Synthetic 42-residue collagen-mimetic peptide (nT=14)
- Average oligomerization by AUC [1]: > 188 -mer

B2: 3sb-KDO (peptide)
peptide: PKGPKGPKGP[Hyp]GP[Hyp]GD[Hyp]GD[Hyp]GD[Hyp]GP[Hyp]GP[Hyp]GP[Hyp]
modifications: not fully specified (C-terminus)
notes: nT=11, printed without the last Gly
- binding result [2]: binds

B3: 3sb-OKD (peptide)
peptide: P[Hyp]GP[Hyp]GP[Hyp]GPKGPKGPKGP[Hyp]GP[Hyp]GD[Hyp]GD[Hyp]GD[Hyp]
notes: as for B2
- binding result (AUC, CD, self-assembly): binds

B4: 3sbG-KDO (peptide)
peptide: PKGPKGPKGP[Hyp]GP[Hyp]GD[Hyp]GD[Hyp]GD[Hyp]GP[Hyp]GP[Hyp]GP[Hyp]G
notes: nT=11
- binding result (AUC, CD, self-assembly): binds

B5: 4sb-OKD (peptide)
peptide: P[Hyp]GP[Hyp]GP[Hyp]GP[Hyp]GPKGPKGPKGPKGP[Hyp]GP[Hyp]GD[Hyp]GD[Hyp]GD[Hyp]GD[Hyp]
notes: nT=14, printed without the last Gly
- binding result [3]: binds

B6: 3sbG-OKD (peptide)
peptide: P[Hyp]GP[Hyp]GP[Hyp]GPKGPKGPKGP[Hyp]GP[Hyp]GD[Hyp]GD[Hyp]GD[Hyp]G
notes: nT=11
- binding result (CD, TEM, self-assembly): binds

B7: 4sbG-OKD2 (peptide)
peptide: PXGPXGPXGPKGPKGPKGPKGPXGPXGDXGDXGDXGDXGPXG
modifications: O = 4-hydroxyproline (Hyp)
notes: nT=14
- binding result [4]: binds

B8: OKD2-OKD2 (peptide)
chain 1: PXGPXGPXGPKGPKGPKGPKGXXGPXGDXGDXGDXGDXGPXG
chain 2: PXGPXGPCGPKGPKGPKGPKGPXGPXGDXGDXGDXGDXGPXG
modifications: O = 4-hydroxyproline (Hyp); Cys in an interstrand disulfide bridge with Hcy of the other chain; O = 4-hydroxyproline (Hyp); Hcy = homocysteine, in an interstrand disulfide bridge with Cys of the other chain
notes: Disulfide-linked dimer (nT 14-14)
- binding result [5]: binds

B9: 4sbG-OKDO (peptide)
peptide: P[Hyp]GP[Hyp]GPKGPKGPKGPKGP[Hyp]GP[Hyp]GD[Hyp]GD[Hyp]GD[Hyp]GD[Hyp]GP[Hyp]GP[Hyp]G
notes: nT=14
- binding result [4]: binds

B10: 4sbG-KDO2 (peptide)
peptide: P[Hyp]GPKGPKGPKGPKGP[Hyp]GP[Hyp]GD[Hyp]GD[Hyp]GD[Hyp]GD[Hyp]GP[Hyp]GP[Hyp]GP[Hyp]G
notes: nT=14
- binding result [6]: binds

B11: 4sbG-gap4 (peptide)
peptide: P[Hyp]GP[Hyp]GP[Hyp]GPKGPKGPKGP[Hyp]GPKGP[Hyp]GD[Hyp]GD[Hyp]GD[Hyp]GP[Hyp]GD[Hyp]G
notes: nT=14
- binding result [7]: binds

B12: OKD2-C8 (peptide)
peptide: PXGPXGPCGPKGPKGPKGPKGPXGPXGDXGDXGDXGDXGPXG
modifications: O = 4-hydroxyproline (Hyp)
notes: Single Cys-bearing peptide, nT=14
- binding result (CD, DLS, self-assembly): binds

B13: OKD2-h22 (peptide)
peptide: PXGPXGPXGPKGPKGPKGPKGXXGPXGDXGDXGDXGDXGPXG
modifications: O = 4-hydroxyproline (Hyp); Hcy = homocysteine
notes: Single Hcy-bearing peptide, nT=14
- binding result (CD, DLS, self-assembly): binds

B14: 4sbG-OKD2ctrl (peptide)
peptide: P[Hyp]GP[Hyp]GPKGPKGPKGP[Hyp]GPKGP[Hyp]GP[Hyp]GD[Hyp]GP[Hyp]GD[Hyp]GD[Hyp]GD[Hyp]G
notes: nT=14
- binding result [8]: binds
